Test: soluble on expression in E. coli; label from the status in PepcDB or PDB records

Sequence	soluble on expression in E. coli
MTNSNNRQSEYPVDPLFLDRWSPRAFDGSPMPKEHLLTILDAAHWAPSASNHQPWRFVYAHKDSEDWPLFVELLMEGNQKWAKNASVLLFVISRDHTISHEGEKKPSATHSFDAGAAWFSLAMQAHLLGYHAHGMGGIFKDRIVEKLDIPDGFKVEAGVAIGTLTDKSILPDDLAEREVPSKRVPLADVAFEGRFTGKAD	soluble
MAMAKARKPREALLWALSDLEENDFKKLKFYLRDMTLSEGQPPLARGELEGLIPVDLAELLISKYGEKEAVKVVLKGLKVMNLLELVDQLSHICLHDYREVYREHVRCLEEWQEAGVNGRYNQVLLVAKPSSESPESLACPFPEQELESVTVEALFDSGEKPSLAPSLVVLQGSAGTGKTTLARKMVLDWATGTLYPGRFDYVFYVSCKEVVLLLESKLEQLLFWCCGDNQAPVTEILRQPERLLFILDGFDELQRPFEEKLKKRGLSPKESLLHLLIRRHTLPTCSLLITTRPLALRNLEPLLKQARHVHILGFSEEERARYFSSYFTDEKQADRAFDIVQKNDILYKACQVPGICWVVCSWLQGQMERGKVVLETPRNSTDIFMAYVSTFLPPDDDGGCSELSRHRVLRSLCSLAAEGIQHQRFLFEEAELRKHNLDGPRLAAFLSSNDYQLGLAIKKFYSFRHISFQDFFHAMSYLVKEDQSRLGKESRREVQRLLEVKEQEGNDEMTLTMQFLLDISKKDSFSNLELKFCFRISPCLAQDLKHFKEQMESMKHNRTWDLEFSLYEAKIKNLVKVKFLKGKSEERMKETLP	soluble
MHGITIDSGRALDMLASMIEEAEQQYQAHMRETPHYEPASAGEGFVAYGESINSLFQLLHQRNAQRLELIKLGLEDARQRVHDLSNTDTEFAARLGAVE	not soluble
SNDYRVAVFGAGGVGKSSLVLRFVKGTFRESYIPTVEDTYRQVISCDKSICTLQITDTTGSHQFPAMQRLSISKGHAFILVYSITSRQSLEELKPIYEQICEIKGDVESIPIMLVGNKCDESPSREVQSSEAEALARTWKCAFMETSAKLNHNVKELFQELLNLEKRRTVSL	soluble
MAHHHHHHMSLPRRMCMFATCQSNRKSCSMRQSSVTSEGYRYSSTFAAGRLFDAVYVINLDRRPDRWEFATQQLSRAGFLHEEYVRFPAVDGRNVDLQKAHACGLISRLGLLRLQEPEHRRIWGMDLNPGAVGCALSHALLWAQIAASRHRSVLVVEDDSLFPQDFHHKYEARAKQVPSDWELLYVSGLDTAGQAPQLRVAEGVCRVPQMHRTTNCYVVSHRGARLLLDACFPVTYQLDTMMTLRTAGDGAGGVPYVTVPNCYTLQPPLVVQATRMGSDIQSASGGVCDRDEVEEERARCRAAGWEVQETGTLVP	not soluble
VILIIVAYLVGILIRKRNDSRIAQLEERKQKLFDLPINEEIEEVKNLHLIGQSQTTFREWNQKWIDISTNSFADIENHIFEAENMNDNFHFFKASAEINNIESQLDLVEEDIKSIREALSRLKEQEEKNSARVKHALDLYEELQNSIEGNSDNFGSTLDEITKQLKNIESEFAEFVTLNSSGDPVEASSILDRAEEHTIALGQITEKIPAIVAKLEDDFPDQLDDLESGYRKLIEQNYHFPEKNIERHFQEIREAIRSNSSELVSLDLDRAEEKNADIQEKIDNLYSIFEREIASYKVVMRQKKILPDYLKHAKENNKKLQEELERLMLTYIFDETYEADVRSFTSDISSVETAVLPTLENFDNQVKPFSELEKIFEKSLNTLSAVENGQVEVFENLRAIEKNEAKARDELDVYIDKLHVIKRYMEKRNLPGIPESFLSVFFSTSAQIEALMDELSRGRINIDAVMRLTKTSKNAIEHLEETAYLVVQNATLTEQLLQYSNRYRSFEPAVQSSFEHALKLFEVDHDYDASLEEISYALETVEPGVTDRFVSSYEK	not soluble
MYNLHREKIFMSYNQNKQYLEDNPEIQEKIELYGLNLLNEVISDNEEEIRADYNEANFLHPFWMNYPPLDRGKMPKGDQIPWIEVGEKAVGSKLTRLVSQREDITVREIGLPTGPDERYLLTSPTIYSLTNGFTDSIMMFVDIKSVGPRDSDYDLVLSPNQVSGNGDWAQLEGGIQNNQQTIQGPRSSQIFLPTIPPLYILSDGTIAPVVHLFIKPIYAMRSLTKGDTGQSLYKIKLASVPNGLGLFCNPGYAFDSAYKFLFRPGKDDRTKSLLQKRVRVDLRVLDKIGPRVMTIDMDK	soluble
MKIRALLLALGMATVLTGCQNMDSNGLLSSGAEAFQAYTLSDAQVKALSDQSCQELDSKAKIAPASSEYTKRLAKIAAALGDNINGQPVNYKVYETKDVNAFAMANGCIRVYSGLMDMMTDNEVEAVIGHEMGHVALGHVKKGMQVALGTNAVRVAAASAGGVVGSLSQSQLGDLGEKLVNSQFSQRQESEADDYSYDLLRKRGISPAGLATSFEKLAKLEAGRQSSMFDDHPASAARAQHVRDRMSADGIKLEHHHHHH	soluble
MKQSKEEFIKSEGADFPGKTYVDCVLQHVFDFQRNYLLKDMFQVHKAHIVMLTEENLMKKEEAKFILHALKKVEEIPEEQLLYTEQHEDLFFLVEHLISQEAKSDFVSNMHIGRSRNDMGVTMYRMSLRRYVLRLMEHHLLLQESILQLAADHKETIMPAYTHTQPAQPTTFGHYTLAIYDTMQRDLERMKKTYKLLNQSPMGAAALSTTSFPIKRERVADLLGFTNVIENSYDAVAGADYLLEVSSLLMIMMTNTSRWIHDFLLLATKEYDGIAVARPYVQISSIMPQKRNPVSIEHARAITSSAPGEAFTVFQMIHNTPFGEIVDTEDDLQPYLYKGIEKAIRVFCILNAVIRTMKVEEDTLKRRSYKHAITITDFADVLTKNYGIPFRHAHHAASVIANMSLEQKKELHELCFKDVNIYLQEKFKIQLLEKEWEEIISPEAFIQKRNVYGGPSKKEMERMINNRKELFRKEEEVFEEEKQRILQAENDLNMLASNIIES	not soluble
MSLVSSTLKSVSRCRHFRIDGFWLQTVMSDIFSHTALSNLAEFSVSELSGSIKRTVETAFEQVRVRGEISGYRGPHSSGHAYFSLKDDRARIDAVIWKGTFSRLKFRPEEGMEVIATGKITTFPGSSKYQIVIESLEPAGAGALMALLEDRRRRLAAEGLFDSARKRPLPFMPRVIGVVTSPTGAVIRDILHRISDRFPVHVVVWPVKVQGEGSGEEVANAIRGFNALKPGGDIARPDVLIVARGGGSLEDLWSFNDEIVVRAAAESEIPLISAVGHETDTTLIDYAADVRAPTPTGAAEMAVPVRAELEAQLSGLAARLSGSVSRQMDNRRQGVRALVRALPSLDQLLALPRRRFDEAASGLGRGLELTTLNKRRAFERSASGLRPETLLNGLKHHRQRITERMHRAETLVERRLLQGKGRVDSFDSALRSLPARLLGQLERQKERVVTAARRADTAVLHRMAQNRSGLAAHDRILQSLSYKNVLNRGYAVIRDEENRPLTRAAAIASGAAVSMEFADGRVSAITTGEGTPAPETAAAPKKKPAKPASSDPGNQGNLFEGHHHHHH	not soluble
MGSDKIHHHHHHVLETFETVAKAVADPNRVRILKLLESGELCVCQITAVLDLAAATVSKHLSLLKAAGLLQQRREGKWAYYRLADRALNPYAPAFLGLIGATLADDPTLTEDARILSKVNALPLQVLCDQGRAALDLTRPTSPAPSCCGTPMMTETSFNVLFLCTGNSARSILAESILNREGAGKFRAYSAGSHPKGQIDPTVLALLKKTNHPTETLRSKSWDEFAAPGAPTLDFVFTVCDNAAGEVCPIWPGQPMTAHWGVPDPAGFVGSEAEKAAFCGEVMRLLRTRISIFAALPIASLDRLSLQRRLKEIGKVALESRETRESGVL	not soluble
MEHQTTRNVILITEGSLQSSLLKDVLETKLGINVLLITPENLASPFVRNQSISAIVLDYSVITDEVFARYMEFKTPNLTGTLEILINCDKSISTDELFVWGALAGIFYTSDDIQTLQTGIDKVLQGDMWFSRKFAQQYITHLRRHSRPINKNVPA	not soluble
MAKPDQLELLFDVAPPADPASAAPPGAPPRKTPKARPAPPAPAAIATPCPDPLPPGARWREVHTEQQPIGFVLLRSRRRSIGFVVADDGLRVTAPNWVTLGQIDDAVREKARWILAKLRDWHARKEQLAMAHTRWQAGGELPYLGKRIVLGLGAERRQACLSGDADAPCDGDTLWLALPVDADQARIRDAAQAWLQQRAGAWFGARLAHFLQLTGLRIRRWRLSSAATRWGSCTSDGNIMLNWRLIHFAPAIIDYVIAHELAHLREMNHSQDFWTEVGHILPGFEDAKNVLRRHDPATLPQFLEHHHHHH	soluble
